Data published in patent publication US20110129457A1.

Key:
[1] = biological target: fully lipid-modified Shh secreted by human HT29 cells (human) (UniProt Q15465); assay: cell-based or functional assay
[2] = biological target: biotinylated-ShhN-Cys (human Shh residues 24-197, N-terminal His6-tag, biotin conjugated) (human) (UniProt Q15465); assay: competition ELISA: 5E1 against immobilized Hhip1β12 for biotinylated ShhN-Cys
[3] = biological target: Human Ihh (residues 29-202), N-terminal His6-tag (human) (UniProt Q14623); assay: SPR (BIAcore-2000), 5E1 IgG immobilized on CM5, Hh injected, 1:1 Langmuir fit
[4] = biological target: Shh (human Sonic hedgehog residues 25-197, N-terminal His6-tag) (human) (UniProt Q15465); assay: as above
[5] = biological target: Shh649 (ShhC-Cys conjugated with DyLight 649 Maleimide) (human) (UniProt Q15465); assay: FACS competition: 1 nM Shh649 preincubated with 5E1, then bound to Ptch1-expressing 293 cells; the blocked partner is Ptch1

Chain of Human Ihh (residues 29-202), N-terminal His6-tag (human) (Q14623 other isoform, or with tags, fused parts or gaps limits assumed): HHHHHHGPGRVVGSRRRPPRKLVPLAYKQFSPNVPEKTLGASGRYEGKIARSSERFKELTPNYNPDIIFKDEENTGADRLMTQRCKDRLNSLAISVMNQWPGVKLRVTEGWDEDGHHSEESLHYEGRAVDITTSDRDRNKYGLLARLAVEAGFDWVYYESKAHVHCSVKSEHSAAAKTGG

| IC50, inhibition of Gli-luciferase activity in HT29/S12 co-culture [1] [nM] | IC50 [2] [nM] | Kd [3] [nM] | Kd [4] [nM] | IC50 (read off the curve) [5] [nM] | Substance |
| --- | --- | --- | --- | --- | --- |
| 5.3 | – | – | – | – | Hhip1ECD (Hhip1 extracellular domain, residues 20-667), N-terminally His6-tagged (from UniProt Q96QV1 20-667) (receptor) |
| – | 23 | 3 | 3 | 0.5 | anti-Shh monoclonal antibody 5E1 |
